# Test results from patent US20060063917A1, “Selection of peptide ligands specific for baculovirus DNA-binding protein from the FliTrxTM random peptide display library” (Vista Biologicals Corporation, priority 2004, published 2006).
# No end group written: not given here.
# Biological target: recombinant His.Tag AcNPV DBP (Autographa californica nucleopolyhedrovirus DNA-binding protein) (Autographa californica nucleopolyhedrovirus (AcNPV))
# Assay: ELISA: FliTrx protein solution coated, 6 ug His.Tag AcNPV DBP added, detected with anti-penta-His and goat anti-mouse IgG-AP; mean of duplicate; negative controls (empty plates) 0.14
# Conditions: not given
row,Molecule,ELISA (O.D. λ = 405 nm) (O.D. λ = 405 nm)
1,"AGRKGERGSVLQ (peptide, part only; not given: FliTrx scaffold, part only, also: inserted in thioredoxin active-site loop of FliTrx fusion protein) [FliTrx selected peptide ligand No. 1 (…), as FliTrx protein solution]",1.21
2,"AMLRAACVVRSM (peptide, part only; not given: FliTrx scaffold, part only, also: inserted in thioredoxin active-site loop of FliTrx fusion protein) [FliTrx selected peptide ligand No. 2 (…), as FliTrx protein solution]",0.56
3,"GGGGRRSGGACP (peptide, part only; not given: FliTrx scaffold, part only, also: inserted in thioredoxin active-site loop of FliTrx fusion protein) [FliTrx selected peptide ligand No. 4 (…), as FliTrx protein solution]",1.13
4,"ADYGKGLRRAMG (peptide, part only; not given: FliTrx scaffold, part only, also: inserted in thioredoxin active-site loop of FliTrx fusion protein) [FliTrx selected peptide ligand No. 3 (…), as FliTrx protein solution]",1.11
5,"PAQAQTRRRRPR (peptide, part only; not given: FliTrx scaffold, part only, also: inserted in thioredoxin active-site loop of FliTrx fusion protein) [FliTrx selected peptide ligand No. 5 (…), as FliTrx protein solution]",1.35

# Biological target: T1, His.Tag AcNPV DBP (Autographa californica nuclear polyhedrosis virus, UniProt P41430)
# T1 construct: made in house; host or cells: E. coli BL21 (DE3)
# T1 sequence (P41430 whole entry, looked up): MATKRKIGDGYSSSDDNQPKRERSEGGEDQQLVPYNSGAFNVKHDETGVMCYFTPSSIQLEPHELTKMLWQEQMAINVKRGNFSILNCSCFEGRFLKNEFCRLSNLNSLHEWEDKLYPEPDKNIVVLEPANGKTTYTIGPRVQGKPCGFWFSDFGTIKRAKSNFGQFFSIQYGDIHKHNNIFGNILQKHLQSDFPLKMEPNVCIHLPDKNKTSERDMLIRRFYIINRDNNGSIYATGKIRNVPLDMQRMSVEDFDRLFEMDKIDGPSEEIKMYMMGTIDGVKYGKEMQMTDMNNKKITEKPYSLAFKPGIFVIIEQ
# Assay: ELISA for His.Tag AcNPV DBP screening using the FliTrx protein solution
# Assay type: binding, Autographa californica nucleopolyhedrovirus (AcNPV)
# Conditions: wells coated with FliTrx protein solution of positive clones; 6 μg His.Tag AcNPV DBP added; mean of duplicate; mean O.D. of negative controls 0.14
# Experimental: (§1) ELISA Protocols for His.Tag AcNPV DBP Screening
# (§2) ELISA procedure was used for analysis of His.Tag AcNPV DBP as a target. The polystyrene microtitration plates (PolySorp™ Surface, Immuno™ Plate, Nunc) were used as the solid phase for the assay. All washes were performed four times with phosphate-buffered saline (PBS) containing 0.05% (V/V) Tween® 20 (PBS-T). The substrate solution for alkaline phosphatase (p-nitrophenyl phosphate, pNPP, 1 mg/ml, in 0.2 M Tris-HCl buffer, pH 7) was from Sigma, St. Louis, Mo. The reaction was stopped by the addition of 3 M NaOH (50 μl per well). The optical density at 405 nm (O.D.λ=405 nm) was measured in a microplate colorimeter (Molecular Devices, Thermo max Microplate Reader).
# 1. Using the FliTrx™ Protein Solution
# Wells of the microtitration plates were coated with the FliTrx™ protein solutions obtained from induced culture cell of positive clones that contain the peptides recognized by His.Tag AcNPV DBP (50 μl per well). To account for plate binders, empty plates were used as negative controls. After incubation overnight at +4° C., the plates were washed, and the uncoated attachment sites on the plates were saturated by incubation for 1 hour at 37° C. with a solution of 2% nonfat dry milk in PBS-T: PBS-T-M (200 μl per well). The plates were then washed, and an aliquot of 100 μl (6 μg) of the purified His.Tag AcNPV DBP was added to both the target plate and the control plate. Plates were incubated for. 1 hour at 37° C. The plates were then washed, and 100 μl of a 1:1,000 dilution of mouse monoclonal Ig G1 antibody to penta-His™ (QIAGEN, Valencia, Calif.) in PBS-T-M were added. After being incubated again for 1 hour at 37° C., the plates were washed, and 100 μl of a 1:1,000 dilution of goat anti-mouse IgG conjugated to alkaline phosphatase (Bio-Rad Laboratories, Hercules, Calif.) were added. After being incubated again for 1 hour at 37° C., the plates were washed, and substrate solution (200 [l per well) was added. After incubation for 1 hour at 37° C., the reaction was stopped.
row,Molecule,"ELISA (O.D. λ = 405 nm), affinity for His.Tag AcNPV DBP"
1,"ADYGKGLRRAMG (baculovirus) [Peptide ligand No. 3, FliTrx selected dodecapeptide ligand recognized by His.Tag AcNPV DBP]",1.11
2,"AGRKGERGSVLQ (baculovirus) [Peptide ligand No. 1, FliTrx selected dodecapeptide ligand recognized by His.Tag AcNPV DBP]",1.21
3,"AMLRAACVVRSM (baculovirus) [Peptide ligand No. 2, FliTrx selected dodecapeptide ligand recognized by His.Tag AcNPV DBP]",0.56
4,"GGGGRRSGGACP (baculovirus) [Peptide ligand No. 4, FliTrx selected dodecapeptide ligand recognized by His.Tag AcNPV DBP]",1.13
5,"PAQAQTRRRRPR (baculovirus) [Peptide ligand No. 5, FliTrx selected dodecapeptide ligand recognized by His.Tag AcNPV DBP]",1.35

# Biological target: T1, His.Tag AcNPV DBP
# Assay: ELISA for His.Tag AcNPV DBP screening using the biotinylated synthesized peptide ligand
# Assay type: binding, Autographa californica nucleopolyhedrovirus (AcNPV)
# Conditions: wells coated with 2 μg His.Tag AcNPV DBP; 25 μg biotinylated peptide added; negative control (empty) plate gave 0.30
# Experimental: as §1, §2
# 2. Using the Biotinylated Synthesized Peptide Ligand
# Wells of the microtitration plates were coated with 50 μl (2 μg) of purified His.Tag AcNPV DBP. To account for plate binders, empty plates were used as negative controls. After incubation overnight at +4° C., the plates were washed, and the uncoated attachment sites on the plates were saturated by incubation for 1 hour at 37° C. with PBS-T-M (200 μl per well). The plates were then washed, and an aliquot of 100 μl (25 μg) of the biotinylated synthesized peptide ligand No. 4 (SEQ ID NO. 6) (Invitrogen, Carlsbad, Calif.) was added to both the target plate and the control plate. Plates were incubated for 1 hour at 37° C. […]
row,Molecule,"mean O.D. value, target plate"
1,"biotinylated synthesized peptide ligand No. 4: biotinylated synthesized peptide ligand No. 4 (SEQ ID NO. 6), GGGGRRSGGACP (also: biotinylated)",about 4.0

# Biological target: recombinant His.Tag AcNPV DBP (Autographa californica nucleopolyhedrovirus DNA-binding protein) (Autographa californica nucleopolyhedrovirus (AcNPV))
# Assay: ELISA: 2 ug His.Tag AcNPV DBP coated, 25 ug biotinylated peptide added, detected with anti-biotin BN-34-AP; empty negative control plate 0.30
# Conditions: not given
row,Molecule,mean O.D. (405 nm) [O.D.]
1,"GGGGRRSGGACP (also: biotinylated, position not given here) [biotinylated synthesized peptide ligand No. 4 (SEQ ID NO. 6)]",4
